According to PMC1097722:

Target: Gal4-16.4.1 fusion protein (pBIND-16.4.1) (human)
Assay: two-hybrid

Row | Substance | fold induction of luciferase activity [fold] | other [fold]
1 | VP16-Rev fusion protein (pACT-Rev) (from UniProt P04618 1-116) (natural protein) | 11 | –
2 | VP16-hCRM1 fusion protein (pACT-hCRM1) (from UniProt O14980 1-1071) (natural protein) | – | 41
